Assays:
[1] = biological target: SHR-1210-IgG1 (human); test: SPR
[2] = biological target: cyno PD1 expressed on CHO-K1 stable cell line (Macaca fascicularis) (UniProt B0LAJ3); test: flow cytometry on cells
[3] = biological target: human PD1 expressed on CHO-K1 stable cell line (Homo sapiens) (UniProt Q15116); test: flow cytometry on cells

| Substance | Kd [1] | EC50 [2] | EC50 [3] |
| --- | --- | --- | --- |
| His-tagged monomeric cynomolgus monkey PD1 ectodomain (domain or fragment) | 32 nM | – | – |
| His-tagged monomeric human PD1 ectodomain (from UniProt Q15116 25-170) (domain or fragment) | 4 nM | – | – |
| SHR-1210-IgG1 (antibody) | – | 6.53 nM | 2.32 nM |
